Test results published in patent publication US20260125472A1 (HEFEI TG IMMUNOPHARMA, published 2026).
Positions count from the first letter of the chain named. Where two headings read alike, the source gives them in different places.

B1: Cross323 (antibody, human IgG1, kappa, V domains shown)
VH: EVQLLESGGGLVQPGGSLKLSCAASGFTFNTYAMNWVRQAPGKGLEWVARIRSKYNNYATYYADSVKDRFTISRDDSKNTAYLQMNNLKTEDTAVYYCVRHGNFGNSYVSWFAYWGQGTLVTVSS
VL: ELVVTQEPSLTVSPGGTVTLTCRSSTGAVTTSNYANWVQQKPGQAPRGLIGGTNKRAPGTPARFSGSLLGGKAALTLSGVQPEDEAEYYCALWYPNLWVFGGGTKLTVLR
B2: Cross325 (antibody, human IgG1, kappa, V domains shown)
VH: B1 VH
VL: B1 VL with P95S, L97D
B3: Cross326 (antibody, human IgG1, kappa, V domains shown)
VH: B1 VH
VL: B1 VL with P95S, L97P
B4: Cross313×PDL1 (bispecific antibody, human IgG1, kappa, L234A L235A)
scFv: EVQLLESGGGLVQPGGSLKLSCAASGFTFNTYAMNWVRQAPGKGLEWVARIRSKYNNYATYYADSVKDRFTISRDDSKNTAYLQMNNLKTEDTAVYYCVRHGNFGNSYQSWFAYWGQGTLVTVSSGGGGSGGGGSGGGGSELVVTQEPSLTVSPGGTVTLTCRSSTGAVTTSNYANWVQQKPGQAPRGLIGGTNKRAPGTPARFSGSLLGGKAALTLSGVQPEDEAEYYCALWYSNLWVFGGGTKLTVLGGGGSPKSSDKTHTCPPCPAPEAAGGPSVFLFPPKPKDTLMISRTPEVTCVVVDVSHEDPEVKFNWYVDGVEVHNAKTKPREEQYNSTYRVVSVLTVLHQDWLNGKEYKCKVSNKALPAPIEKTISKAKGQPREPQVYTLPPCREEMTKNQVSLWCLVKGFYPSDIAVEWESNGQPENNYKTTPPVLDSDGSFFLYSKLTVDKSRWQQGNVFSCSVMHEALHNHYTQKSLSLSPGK
heavy: QVQLVQSGAEVKKPGASVKVSCKASGYSFTGYYMHWVRQAPGQGLEWIGRINPYNGATTYSQNFKDRATMTVDTSISTAYMELSRLRSDDTAVYYCVPTGMGYFLMDYWGQGTLVTVSSASTKGPSVFPLAPSSKSTSGGTAALGCLVKDYFPEPVTVSWNSGALTSGVHTFPAVLQSSGLYSLSSVVTVPSSSLGTQTYICNVNHKPSNTKVDKKVEPKSCDKTHTCPPCPAPEAAGGPSVFLFPPKPKDTLMISRTPEVTCVVVDVSHEDPEVKFNWYVDGVEVHNAKTKPREEQYNSTYRVVSVLTVLHQDWLNGKEYKCKVSNKALPAPIEKTISKAKGQPREPQVCTLPPSREEMTKNQVSLSCAVKGFYPSDIAVEWESNGQPENNYKTTPPVLDSDGSFFLVSKLTVDKSRWQQGNVFSCSVMHEALHNHYTQKSLSLSPGK
light: DIQLTQSPSFLSASVGDRVTITCKASQDVGSAVVWYQQKPGKAPKLLIYWASTRHTGVPSRFSGSGSGTEFTLTISSLQPEDFATYFCQQFTSYPTFGQGTKLEIKRTVAAPSVFIFPPSDEQLKSGTASVVCLLNNFYPREAKVQWKVDNALQSGNSQESVTEQDSKDSTYSLSSTLTLSKADYEKHKVYACEVTHQGLSSPVTKSFNRGEC
B5: Cross317×PDL1 (bispecific antibody, human IgG1, kappa, L234A L235A)
scFv: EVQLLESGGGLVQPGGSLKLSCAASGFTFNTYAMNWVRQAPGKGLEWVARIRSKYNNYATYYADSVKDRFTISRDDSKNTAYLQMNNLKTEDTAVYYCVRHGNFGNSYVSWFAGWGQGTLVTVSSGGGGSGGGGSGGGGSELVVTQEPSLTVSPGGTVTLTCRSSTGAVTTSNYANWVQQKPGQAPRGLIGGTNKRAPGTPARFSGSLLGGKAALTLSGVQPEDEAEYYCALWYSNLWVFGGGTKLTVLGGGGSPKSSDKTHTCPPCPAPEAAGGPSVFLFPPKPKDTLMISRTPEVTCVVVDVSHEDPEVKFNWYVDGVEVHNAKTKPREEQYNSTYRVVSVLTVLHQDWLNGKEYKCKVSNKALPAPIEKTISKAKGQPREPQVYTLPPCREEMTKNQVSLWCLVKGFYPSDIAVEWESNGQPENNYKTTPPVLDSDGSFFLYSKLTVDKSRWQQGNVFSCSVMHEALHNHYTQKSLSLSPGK
heavy: B4 heavy
light: B4 light

Experiments:
CD3E&D protein [1] = target: T1, CD3E&D protein (UniProt P04234 22-105); experiment: SPR (Biacore 8K), antibody on CM5 chip, CD3 E&D antigen as analyte; design: Fold change: reference not given here
T1 construct: Purchased from Acro; also called CD3 E&D antigens; CD3E&D antigen protein
Procedure: In a Biacore 8K (Cytiva) system, the antibody was diluted to 10 μg/mL in HBS-EP running buffer and coupled to a CM5 chip (Cytiva) at a flow rate of 10 μL/min.

CD3 on CD8 T cells [2] = target: T2, CD3 on CD8 T cells (Homo sapiens (Human), UniProt P07766 23-207); experiment: flow cytometry, CD8 T cells in PBMCs, binding ratio % [panel A]
T2 construct: Native CD3 complex on CD8 T cells among PBMCs; also called T cells (PBMCs gated with anti-human CD8 antibody)
Procedure: PBMCs were diluted with PBS to 2×10⁶/mL and added to a 1.5 ml EP tube at a volume of 100 μL/tube, 10 μL/tube of goat serum was added thereto and incubated at 4° C. for 30 min for blocking. […] 1 mL of PBS was added to the EP tube, followed by centrifugation at 3500 rpm for 5 min at 4° C. The supernatant was discarded, and the cells were washed again with PBS. After centrifugation, the supernatant was discarded, and the cells were resuspended with 100 μl/tube PBS. 1 μl/tube Alexa-647-labeled goat anti-human secondary antibody (purchased from Jackson lab) and 0.5 μl/tube PerCP-Cy5.5-labeled anti-human CD8 antibody were added and incubated at 4° C. in the dark for 30 min. The cells were washed twice with PBS, and the supernatant was discarded after centrifugation. The cells were resuspended with […] of PBS and assayed using the flow cytometry.

CD3E&D protein [3] = target: T1, CD3E&D protein; experiment: ELISA, coated CD3E&D protein, OD450 [panel C]
Procedure: In this example, the binding properties of the parental antibody Cross3 and the CD3 affinity-reduced antibody (the production method and the amino acid sequences of the heavy and light chains were shown in Example 1) were detected by ELISA. The CD3E&D protein was coated onto a 96-well plate by the inventors, and the strength of the signal after the addition of the antibody was used to determine the binding properties of the antibody and CD3E&D.
CD3E&D protein (purchased from Acro) was diluted to 2 μg/ml with PBS buffer, added to a 96-well plate at a volume of 100 μL/well, and placed at 4° C. overnight. The PBS buffer in the 96-well plate was aspirated, and the plate was washed 6 times with PBST (pH 7.2 PBS containing 0.1% Tween 20) buffer. Then, 200 μL/well PBS/10% BSA was added and incubated at 37° C. for 2 h for blocking. The blocking solution was removed, and the plate was washed six times with PBST. Then, the to-be-tested antibodies serially diluted with PBST/0.05% BSA, Cross3, Cross303, Cross307, Cross308, Cross309, Cross310, Cross311, Cross312, Cross313, Cross314, Cross316, Cross317, Cross318, Cross323, Cross325, Cross326, and control IgG1 (purchased from Bio-Tech) were added at 100 μL/well, and incubated at 37° C. for 1 h. The reaction system was removed, and the plate was washed 6 times with PBST. Then, the cells were incubated at 37° C. for 1 h with HRP (horseradish peroxidase)-labeled anti-human secondary antibody (Fab specific) (purchased from Sigma) serially diluted with PBST/0.05% BSA at 100 μL/well. The plate was washed six times with PBST, TMB (tetramethylbenzidine) was added at 80 μL/well and incubated at room temperature for 3 min. 4 M sulfuric acid was added at 80 μL/well to terminate the reaction. The absorbance was read at 450 nm using a microplate reader.

[4] = target: T3, PDL1 on A-375 melanoma cells, HCT-15 colorectal cancer cells and A549 lung cancer cells (UniProt Q9NZQ7 19-290, limits assumed); experiment: flow cytometry, A549 cells, MFI [panel B]
T3 construct: whole, on cells
Procedure: (2) The tumor cells were diluted to 2×10⁶/ml with PBS and added to a 1.5 ml EP tube at a volume of 100 μl/tube, and goat serum was added thereto at 10 μl/tube. The cells were blocked at 4° C. for 30 min. The serially diluted bispecific antibodies, Cross3×Trop2, Cross303×Trop2, Cross307×Trop2, Cross308×Trop2, Cross309×Trop2, Cross310×Trop2, Cross311×Trop2, Cross312×Trop2, Cross313×Trop2, Cross314×Trop2, Cross316×Trop2, Cross317×Trop2, Cross318×Trop2, Cross323×Trop2, Cross325×Trop2, Cross326×Trop2, and Cross3×PDL1, Cross303×PDL1, Cross307×PDL1, Cross308×PDL1, Cross309×PDL1, Cross310×PDL1, Cross311×PDL1, Cross312×PDL1, Cross313×PDL1, Cross314×PDL1, Cross316×PDL1, Cross317×PDL1, Cross318×PDL1, Cross323×PDL1, Cross325×PDL1, Cross326×PDL1, and control hIgG1LALA (purchased from Bio-Tech) were added and incubated at 4° C. for 30 min. 1 ml of PBS was added to the EP tube, followed by centrifugation at 3500 rpm for 5 min at 4° C. The supernatant was discarded, and the cells were washed again with PBS. After centrifugation, the supernatant was completely discarded, and the cells were resuspended with PBS at 100 μl/tube. Alexa-647-labeled goat anti-human IgG secondary antibody (purchased from Jackson lab) was added at 1 μl/tube and incubated at 4° C. in the dark for 30 min. The cells were washed twice with PBS, and the supernatant was completely discarded after centrifugation. The cells were resuspended with PBS at 200 μl/tube and assay was performed using the flow cytometry.

CD3 on CD8 T cells [5] = target: T2, CD3 on CD8 T cells; experiment: flow cytometry, CD8 T cells in PBMCs, binding ratio % [panel A]; remark: listed apart in the source
Procedure: (1) PBMCs were diluted to 2×10⁶/ml with PBS and added to a 1.5 ml EP tube at 100 μl/tube, goat serum was added thereto at 10 μl/tube. The cells were blocked at 4° C. for 30 min. The serially diluted bispecific antibodies, Cross3×Trop2, Cross303×Trop2, Cross307×Trop2, Cross308×Trop2, Cross309×Trop2, Cross310×Trop2, Cross311×Trop2, Cross312×Trop2, Cross313×Trop2, Cross314×Trop2, Cross316×Trop2, Cross317×Trop2, Cross318×Trop2, Cross323×Trop2, Cross325×Trop2, Cross326×Trop2, Cross3×PDL1, Cross313×PDL1, Cross316×PDL1, Cross325×PDL1, and control hIgG1LALA (purchased from Bio-Tech) were added and incubated at 4° C. for 30 min. 1 ml of PBS was added to the EP tube, followed by centrifugation at 3500 rpm for 5 min at 4° C. The supernatant was discarded, and the system was washed again with PBS. After centrifugation, the supernatant was discarded, and the cells were resuspended with PBS at 100 μl/tube. 1 μl/tube Alexa-647-labeled goat anti-human IgG secondary antibody (purchased from Jackson lab) and 0.5 μl/tube PerCP-Cy5.5-labeled anti-human CD8 antibody were added and incubated at 4° C. in the dark for 30 min. The cells were washed twice with PBS. After centrifugation, the supernatant was discarded. The cells were resuspended with 200 μl/tube of PBS and assay is performed by flow cytometry.

PDL1 protein [6] = target: T4, PDL1 protein (UniProt Q9NZQ7 19-238); experiment: ELISA, coated PDL1 protein, OD450 [panel A]
T4 construct: Bought recombinant protein
Procedure: (§1) (3) PDL1 protein (purchased from Acro) was diluted to 2 μg/ml with PBS buffer, added to a 96-well plate at a volume of 100 μL/well, and placed at 4° C. overnight. The PBS buffer in the 96-well plate was aspirated, and the plate was washed 6 times with PBST (pH 7.2 PBS containing 0.10% Tween 20) buffer. Then, PBS/10% BSA was added at 200 μL/well and incubated at 37° C. for 2 h for blocking. The blocking solution was removed, and the plate was washed six times with PBST. Then, the to-be-tested bispecific antibodies serially diluted with PBST/0.05% BSA, Cross3×PDL1, Cross303×PDL1, Cross307×PDL1, Cross308×PDL1, Cross309×PDL1, Cross310×PDL1, Cross311×PDL1, Cross312×PDL1, Cross313×PDL1, Cross314×PDL1, Cross316×PDL1, Cross317×PDL1, Cross318×PDL1, Cross323×PDL1, Cross325×PDL1, Cross326×PDL1, and control IgG1LALA (purchased from Bio-Tech) were added at 100 μL/well, and incubated at 37° C. for 1 h. The reaction system was removed, and the plate was washed 6 times with PBST. Then, the cells were incubated at 37° C. for 1 h with HRP (horseradish peroxidase)-labeled anti-human secondary antibody (Fab specific) (purchased from Sigma) serially diluted with PBST/0.05% BSA at 100 μL/well. After the plate was washed six times with PBST, TMB (tetramethylbenzidine) was added at 80 μL/well and incubated at room temperature for 3 min. 4 M sulfuric acid was added at 80 μL/well to terminate the reaction. The absorbance was read at 450 nm using a microplate reader.

PDL1 protein [7] = target: T4, PDL1 protein; experiment: ELISA, coated PDL1 protein, OD450 [panel B]
Procedure: as §1

T2 sequence (P07766 23-207 limits assumed): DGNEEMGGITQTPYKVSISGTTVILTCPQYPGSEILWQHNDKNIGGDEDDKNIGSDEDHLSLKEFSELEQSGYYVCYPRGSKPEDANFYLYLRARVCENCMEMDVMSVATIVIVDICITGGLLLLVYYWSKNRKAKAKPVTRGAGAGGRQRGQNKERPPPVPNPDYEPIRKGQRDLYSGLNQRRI
T1 sequence (chain, as listed by the source limits assumed, chain 1 of 2): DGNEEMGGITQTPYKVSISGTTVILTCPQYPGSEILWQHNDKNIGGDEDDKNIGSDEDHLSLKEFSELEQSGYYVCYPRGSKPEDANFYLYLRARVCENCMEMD
T1 sequence (P04234 22-105 limits assumed, chain 2 of 2): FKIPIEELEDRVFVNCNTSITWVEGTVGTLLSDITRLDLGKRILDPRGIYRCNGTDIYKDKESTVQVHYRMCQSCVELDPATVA
T4 sequence (Q9NZQ7 19-238 limits assumed): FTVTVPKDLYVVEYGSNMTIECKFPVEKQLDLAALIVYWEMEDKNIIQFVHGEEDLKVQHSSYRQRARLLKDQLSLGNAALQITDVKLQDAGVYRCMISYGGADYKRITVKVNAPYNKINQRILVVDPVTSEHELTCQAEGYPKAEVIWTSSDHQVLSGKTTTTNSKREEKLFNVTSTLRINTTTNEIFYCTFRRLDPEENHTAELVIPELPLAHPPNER
T3 sequence (Q9NZQ7 19-290 limits assumed): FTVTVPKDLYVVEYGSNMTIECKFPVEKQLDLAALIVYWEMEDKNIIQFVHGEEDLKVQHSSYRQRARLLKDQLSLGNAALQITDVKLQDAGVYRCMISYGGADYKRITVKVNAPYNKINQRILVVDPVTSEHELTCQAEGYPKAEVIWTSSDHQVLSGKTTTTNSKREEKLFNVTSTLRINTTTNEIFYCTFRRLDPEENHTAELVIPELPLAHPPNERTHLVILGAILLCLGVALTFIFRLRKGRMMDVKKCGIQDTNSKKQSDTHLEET

Binder | Fold change (CD3E&D protein [1]) | Kd (CD3E&D protein [1]) | koff (CD3E&D protein [1]) | kon (CD3E&D protein [1]) | EC50 (read off the curve) (CD3 on CD8 T cells [2]) | EC50 (read off the curve) (CD3E&D protein [3]) | EC50 (read off the curve) [4] | EC50 (read off the curve) (CD3 on CD8 T cells [5]) | EC50 (read off the curve) (PDL1 protein [6]) | EC50 (read off the curve) (PDL1 protein [7])
B1 | 19.9 | 3.28 nM | 0.0094 s⁻¹ | 2.86e+06 M⁻¹ s⁻¹ | ~0.3 µg/mL | ~0.03 µg/mL | – | – | – | –
B2 | 15.6 | 2.57 nM | 0.00366 s⁻¹ | 1.42e+06 M⁻¹ s⁻¹ | ~0.3 µg/mL | ~0.03 µg/mL | – | – | – | –
B3 | 16.5 | 2.73 nM | 0.0386 s⁻¹ | 1.41e+07 M⁻¹ s⁻¹ | – | ~0.03 µg/mL | – | – | – | –
B4 | – | – | – | – | – | – | ~1 µg/mL | ~2 µg/mL | ~0.2 µg/mL | –
B5 | – | – | – | – | – | – | ~1 µg/mL | – | – | ~0.2 µg/mL
